Experimental data: patent US20260274928A1

Biological target: 25-strain panel of pre- and post-Omicron VSV-based SARS-CoV-2 S pseudotyped viruses
Assay: cell-based or functional assay

B1: S2V29-v37.2 (antibody, V domains shown)
VH: EVQLVESGGSVVQPGRALRLSCAASGITFSSFGMYWVRQAPGKGLEWLGYIAYDGSDTYYADSVKGRFTISRDNSKNTLYLQMNSLRIEDTAVYYCAKDYYPLLSYYYGLDVWGQGTTVTVSS
VL: QSVLTQPRSVSGSPGQSVTISCTGTSSDVGAYNYVSWYQQHPGKAPKFMIYDVDQRPSGVPDRFSGSKSGNTASLIISGLQAEDEADYYCSSYAGSYIWVFGGGTQLTVL
- IC50, pseudovirus neutralization: 1.9 to 31.2 ng/mL
- median IC50, pseudovirus neutralization: 8.2 ng/mL
